From patent publication EP4520771A2 (Genmab A/S, dated 2025) come the findings set out here.

Assay [1] has as its target T1, human epidermal growth factor receptor 2 (HER2) (human, UniProt P04626 23-1255). In words: cell-based or functional assay.
Assay [2] deals with T1, human epidermal growth factor receptor …. In words: cell-based or functional assay. This is another data set of the same source.
Assay [3] has the same target. Nature of the assay: cell-based or functional assay. The source holds these as a separate data set.
Assay [4] shares this target. Nature of the assay: cell-based or functional assay. The source holds these as a separate data set.
For assay [5] the target is unchanged. In words: cell-based or functional assay. The source holds these as a separate data set.
The target is the same in assay [6]. Nature of the assay: flow cytometry on A431 cells.
Assay [7] has the same target. Nature of the assay: flow cytometry on AU565 cells. (In general: Flow cytometry measures light scatter and fluorescence of single cells or particles in a stream.)

Usually EC50 stands for the concentration at which the effect is half-maximal.

Like-named read-outs stand apart in the source and are kept apart here.

B1: HER2 antibody 060 (antibody, V domains shown)
VH: EVQLVQSGAEVKKPGESLKISCKGSGYRFTSYWIGWVRQMPGKGLEWMGSIYPGDSYTRNSPSFQGQVTISADKSIATAYLQWNSLKASDTAMYYCARHAGDFYYFDGLDVWGQGTTVTVSS
VL: not shown
As for B1, the “EC50 of A431 cell kill, anti-kappa-ETA'-conjugated antibody” value (from here on “EC50 of A431 cell kill”) in assay [1] is around 0.01 µg/mL. In assay [2], the “% cells killed (maximal), AU565 cells, anti-kappa-ETA'-conjugated antibody” value (shortened to “% cells killed (maximal), AU565 cells”) was 64.3% and the “EC50 of AU565 cell kill, anti-kappa-ETA'-conjugated antibody” value (shortened to “EC50 of AU565 cell kill”) was found to be 0.0794 µg/mL.

B2: HER2 antibody 059 (antibody, V domains shown)
VH: QVQLVQSGAEVKKPGASVRVPCKASGYTFTRYGISWVRQAPGQGLEWMGWISAYNGKTYYAQKLQGRVTMTTDTSTSTAYMELRSLRSDDTAVYYCARSPLLWFEELYFDYWGQGTLVTVSS
VL: EIVLTQSPGTLSLSPGERATLSCRASQSVSSTYLAWYQQKPGQAPRLLIYGASSRATGIPDRFSGSGSGTDFTLTISRLEPEDFAVYYCQQYGTSLFTFGPGTKVDIK
For the molecule B2, in assay [2], the “% cells killed (maximal), AU565 cells” value was 67% and the “EC50 of AU565 cell kill” value stood at 0.0677 µg/mL.

B3: HER2 antibody 169 (antibody, V domains shown)
VH: QVQLVQSGAEVKKPGASVKVSCKASGYTFTNYGISWVRQAPGQGLEWMGWLSAYSGNTIYAQKLQGRVTMTTDTSTTTAYMELRSLRSDDTAVYYCARDRIVVRPDYFDYWGQGTLVTVSS
VL: EIVLTQSPATLSLSPGERATLSCRASQSVSSYLAWYQQKPGQAPRLLIYDASNRATGIPARFSGSGSGTDFTLTISSLEPEDFAVYYCQQRSNWPRTFGQGTKVEIK
With B3, in assay [3], the “% cells killed (maximal), AU565 cells” value worked out at 49.9% and the “EC50 of AU565 cell kill” value is 0.0356 µg/mL. Further, in assay [4], the “% cells killed (maximal), A431 cells, anti-kappa-ETA'-conjugated antibody” value (“% cells killed (maximal), A431 cells” for short) was found to be 34%.

B4: HER2 antibody 111 (antibody, V domains shown)
VH: QVQLVQSGAEVKKPGSSVKVSCKASGGTFSSYGISWVRQAPGPGLEWMGRIIPILGIANYAQKFQGRVTITADKSTNTAYMELSSLRSEDTAVYYCARDQEYSSNWYYWGQGTLVTVSS
VL: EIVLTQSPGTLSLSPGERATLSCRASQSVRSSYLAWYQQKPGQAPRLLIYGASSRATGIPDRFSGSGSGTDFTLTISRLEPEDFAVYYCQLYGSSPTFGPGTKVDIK
Turning to B4, in assay [2], the “% cells killed (maximal), AU565 cells” value was 72% and the “EC50 of AU565 cell kill” value stood at 0.0242 µg/mL. For the same molecule, the “EC50 of A431 cell kill” value in assay [5] is around 0.01 µg/mL.

B5: HER2 antibody 127 (antibody, V domains shown)
VH: EVQLVQSGAEVKKPGESLTISCKGSGYSFSIYWIGWVRQMPGKGLEWMGIIFPGDSDIRYSPSFQGQVTISADKSISTAYLQWSSLKASDTAMYYCARQPGDWSPRHWYFDLWGRGTLVTVSS
VL: VIWMTQSPSLLSASTGDRVTISCRMSQGISSYLAWYQQKPGKAPELLIYAASTLQSGVPSRFSGSGSGTDFTLTISYLQSEDFATYYCQQYYSFPLTFGGGTKVEIK
For the molecule B5, in assay [3], the “% cells killed (maximal), AU565 cells” value turned out to be 69% and the “EC50 of AU565 cell kill” value is 0.0345 µg/mL.

B6: HER2 antibody 005 (antibody, human IgG1, V domains shown)
VH: EVQLVQSGAEVKKPGESLKISCKASGYSFHFYWIGWVRQMPGKGLEWMGSIYPGDSDTRYRPSFQGQVTISADKSISTAYLQWTSLKASDTAIYYCARQRGDYYYFYGMDVWGQGTTVTVSS
VL: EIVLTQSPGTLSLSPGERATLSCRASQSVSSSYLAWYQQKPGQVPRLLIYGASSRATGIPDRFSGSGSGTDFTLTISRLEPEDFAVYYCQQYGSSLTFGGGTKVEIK
notes: human IgG1,κ; also called HuMab 005; PC1014-005
On to B6, for which the “EC50 of A431 cell kill” value in assay [1] was around 0.0101 µg/mL. Besides, in assay [2], the “% cells killed (maximal), AU565 cells” value was found to be 69.7% and the “EC50 of AU565 cell kill” value was 0.0151 µg/mL. Further, the binding result in assay [6] is recorded as “binds”.

B7: HER2 antibody 132 (antibody, V domains shown)
VH: QVQLVQSGAEVKKPGASVKVSCKASGYTFTSYGISWVRQAPGQGLEWMGWISAYNGNSNYVQKFQGRVTMTTDTTTSTAYMELRSLTSDDTAVYYCAREYSYDSGTYFYYGMDVWGQGTTVTVSS
VL: EIVLTQSPATLSLSPGERATLSCRASQSVSSYLAWYQQKPGQAPRLLIYDASNRATGIPARFSGSGSGTDFTLTISSLEPEDFAVYYCQQRSNWPMYTFGQGTKLEIK
As to B7, in assay [3], the “% cells killed (maximal), AU565 cells” value came out at 61.6% and the “EC50 of AU565 cell kill” value was found to be 0.0394 µg/mL.

B8: HER2 antibody 159 (antibody, V domains shown)
VH: EVQLVQSGAEVKKPGESLKISCKGSGYNFTSYWIGWVRQMPGKGLEWMGIIYPGDSDTRYSPSFQGQVTISADKSISTAYLQWSSLKASDTAMYYCARWGTYYDILTGYFNWFDPWGQGTLVTVSS
VL: DIQMTQSPSSLSASVGDRVTITCRASQGISSWLAWYQQKPEKAPKSLIYAASSLQSGVPSRFSGSGSGTDFTLTISSLQPEDFATYYCQQYYIYPWTFGQGTKVEIK
For the molecule B8, in assay [3], the “% cells killed (maximal), AU565 cells” value stood at 70.3% and the “EC50 of AU565 cell kill” value is 0.0349 µg/mL.

B9: HER2 antibody 098 (antibody, V domains shown)
VH: EVQLLESGGGLVQPGGSLRLSCAASGFTFSNYGMSWVRQAPGKGLEWVSAISGSAYSTYYADSVKGRFTISRDNSKNTLWLQMNSLRAEDTAVYYCAKAHYHGSGSYYTLFDYWGQGTLVTVSS
VL: DIQMTQSPSSLSASVGDRVTITCRASQGISSWLAWYQQKPEKAPKSLIYAASSLQSGVPSRFSGSGSGTDFTLTISSLQPEDFATYYCQQYNSYPYTFGQGTKLEIK
notes: also called PC1014-098; TH1014-098
As to B9, the EC50 in assay [7] was 0.336 µg/mL. Further, the EC50 in assay [6] was 0.068 µg/mL. Also, in assay [3], the “% cells killed (maximal), AU565 cells” value was determined as 58.7% and the “EC50 of AU565 cell kill” value stood at 0.0121 µg/mL. Also, in assay [4], the “% cells killed (maximal), A431 cells” value worked out at 87.2% and the “EC50 of A431 cell kill” value is 0.00165 µg/mL.

B10: HER2 antibody 025 (antibody, V domains shown)
VH: QVQLQQWGAGLLKPSETLSLTCAVYGGSFSDYYWNWIRQPPGKGLEWIGEIHHSGSTNYNPSLKSRVTISVDTSKNQFSLKLSSVTAADTAVYYCARGYYDSGVYYFDYWAQGTLVTVSS
VL: DIQMTQSPSSLSASVGDRVTITCRASQGISRWLAWYQQKPEKAPKSLIYAASSLRSGVPSRFSGSGSGTDFTLTISSLQPEDFATYYCQQYNSYPITFGQGTRLEIK
notes: also called HuMab-025; PC1014-025
Take B10: the binding result in assay [6] is recorded as “binds”. Besides, in assay [3], the “% cells killed (maximal), AU565 cells” value was 60% and the “EC50 of AU565 cell kill” value was determined as 0.0167 µg/mL. Besides, in assay [4], the “% cells killed (maximal), A431 cells” value was determined as 86.7% and the “EC50 of A431 cell kill” value was around 0.00977 µg/mL.

B11: HER2 antibody 153 (antibody, V domains shown)
VH: QVQLVESGGGVVQPGRSLRLSCAASGFTFSDYVIHWVRQAPGKGLEWVTVISYDGSNKYYADSVKGRFTISRDNSKNTLYLQMNSLSAEDTAMYYCARGGITGTTGVFDYWGQGTLVTVSS
VL: DIQMTQSPSSLSASVGDRVTITCRASQGISSWLAWYQQKPEKAPKSLIYDASSLQSGVPSRFSGSGYGTDFSLTISSLQPEDFAIYYCQQYKSYPITFGQGTRLEIK
Consider B11, for which, in assay [3], the “% cells killed (maximal), AU565 cells” value came out at 60.3% and the “EC50 of AU565 cell kill” value is 0.0323 µg/mL. Moreover, in assay [4], the “% cells killed (maximal), A431 cells” value came to 82.4% and the “EC50 of A431 cell kill” value is around 0.0101 µg/mL.

B12: HER2 antibody 091 (antibody, V domains shown)
VH: QVQLQQWGAGLLKPSETLSLTCAVSGGSFSGYYWTWIRQPPGKGLEWIGEIYHSGDTNYNPSLKSRVTISVDTSKNQFSLKLYSVTAADTAVYYCARLYFGSGIYYLDYWGQGTLVTVSS
VL: DIQMTQSPSSLSASVGDRVTITCRASQGISSWLVWYQQKPEKAPKSLIYAASSLQSGVPSRFSGSGSGTDFTLTISSLQPEDFATYYCQQYNSFPPTFGQGTKVEIK
On to B12, for which, in assay [3], the “% cells killed (maximal), AU565 cells” value worked out at 50.6% and the “EC50 of AU565 cell kill” value is 0.0465 µg/mL. Also, in assay [4], the “% cells killed (maximal), A431 cells” value came out at 83.3% and the “EC50 of A431 cell kill” value was around 0.00986 µg/mL.

B13: HER2 antibody 084 (antibody, V domains shown)
VH: QVQLVQSGAEVKKPGSSVKVSCKASGGTFRTYAINWVRQAPGQGLEWMGRINTVLGIVNHAQKFQGRVTITADKSTNTAYMELNSLRSEDTAVYYCAREKGVDYYYGIEVWGQGTTVTVSS
VL: DIQMTQSPSSVSASVGDRVTITCRASQGISSWLAWYQHKPGKAPKLLIYVASTLQSGVPSRFSGSGSGTDFTLTISSLQPEDFATYYCQQANSFPLTFGGGTKVEIK
With B13, in assay [3], the “% cells killed (maximal), AU565 cells” value is 58.1% and the “EC50 of AU565 cell kill” value worked out at 0.027 µg/mL. The “% cells killed (maximal), A431 cells” value in assay [4] was 50.5%.

B14: HER2 antibody 050 (antibody, V domains shown)
VH: EVQLLESGGGLVQPGGSLRLSCAASGFTFSSYAMNWVRQAPGKGLEWVSAISGRGGTTYYADSVKGRFTISRDNSKNTLYLQMSSLRAEDTAVYYCAKARANWDYFDYWGQGTLVTVSS
VL: DIQMTQSPSSVSASVGDRVTITCRASQGISSWLAWYQHKPGKAPKLLIYAASILQSGVPSRFSGSGSGTDFTLTISSLQPEDFATYYCQQANSFPITFGQGTRLEIK
Take B14: in assay [3], the “% cells killed (maximal), AU565 cells” value turned out to be 52.4% and the “EC50 of AU565 cell kill” value amounted to 0.0127 µg/mL.

B15: HER2 antibody 106 (antibody, V domains shown)
VH: EVQLVQSGAEVKKPGESLKISCKGSGYSFTRYWIGWVRQMPGKGLEWMGIIYPGDSDTRYSPSFQGQVTISADKSISTAYLQWSSLKASDTAMYYCARLTGDRGFDYYSGMDVWGQGTTVTVSS
VL: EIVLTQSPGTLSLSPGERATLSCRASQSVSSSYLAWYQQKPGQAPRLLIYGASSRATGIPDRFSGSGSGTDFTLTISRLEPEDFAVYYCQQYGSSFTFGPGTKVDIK
As to B15, in assay [2], the “% cells killed (maximal), AU565 cells” value amounted to 59.1% and the “EC50 of AU565 cell kill” value came to 0.108 µg/mL.

B16: HER2 antibody 129 (antibody, V domains shown)
VH: QVQLVESGGGVVQPGRSLRLSCAASGFTFSTFAIHWVRQAPGKGLEWVAVISYDGGHKFYADSVKGRFTISRDNSKNTLYLQMNSLRAEDTAMYYCARGLGVWGAFDYWGQGTLVTVSS
VL: EIVLTQSPATLSLSPGERATLSCRASQSVSSYLAWYQQKPGQAPRLLIYDASNRATGIPARFSGSGSGTDFTLTISSLEPEDFAVYYCQQRSNWWTFGQGTKVEIK
As for B16, in assay [3], the “% cells killed (maximal), AU565 cells” value is 60.8% and the “EC50 of AU565 cell kill” value was determined as 0.0309 µg/mL. For the same molecule, in assay [4], the “% cells killed (maximal), A431 cells” value amounted to 75.9% and the “EC50 of A431 cell kill” value is around 0.0106 µg/mL.
